Test results from the supplement of paper PMC5998384.

Key:
HeLa Kyoto [1] = test: solubility in G1/S (NP-40 vs SDS abundance) (log2 ratio); higher = more soluble; settings: cell cycle stage: G1/S
HeLa Kyoto [2] = test: thermal stability score vs G1/S (z-score of summed log2 fold changes over temperatures); higher = more thermally stable than in G1/S
HeLa Kyoto [3] = test: melting temperature (median over replicates), in situ; higher = more thermally stable
HeLa Kyoto [4] = test: solubility change mitosis vs G1/S (difference of NP-40 vs SDS log2 ratios) (log2 ratio difference); higher = more soluble in mitosis
[5] = cell cycle stage: early G1 (4.5 h after nocodazole release)
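Throughout, for melting temperature (median over replicates), in situ: HeLa Kyoto cells synchronized by double thymidine or nocodazole block, proteins quantified by TMT10plex mass spectrometry, three independent biological replicates.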
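Throughout, for solubility change mitosis vs G1/S (difference of NP-40 vs SDS log2 ratios): synchronized HeLa Kyoto cells (double thymidine block for G1/S, nocodazole release for mitosis), protein amounts in NP-40 versus SDS lysates quantified by mass spectrometry, three biological replicates.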
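Throughout, for solubility in G1/S (NP-40 vs SDS abundance): HeLa Kyoto cells arrested at G1/S by double thymidine block, proteins quantified by TMT10plex mass spectrometry in mild NP-40 versus SDS extracts, three biological replicates.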
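Throughout, for thermal stability score vs G1/S (z-score of summed log2 fold changes over temperatures): synchronized HeLa Kyoto cells, proteins quantified by TMT10plex mass spectrometry, three biological replicates, mitosis taken 0.5 h after nocodazole release, G1/S directly after double thymidine block.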

Sequence | solubility in G1/S (log2) (HeLa Kyoto [1]) | thermal stability score (HeLa Kyoto [2]; [5]) | thermal stability score (HeLa Kyoto [2]; cell cycle stage: mitosis) | melting temperature (HeLa Kyoto [3]; cell cycle stage: G1/S) | melting temperature (HeLa Kyoto [3]; cell cycle stage: mitosis) | solubility change mitosis (log2) (HeLa Kyoto [4])
MALLSTVRGATWGRLVTRHFSHAARHGERPGGEELSRLLLDDLVPTSRLELLFGMTPCLLALQAARRSVARLLLQAGKAGLQGKRAELLRMAEARDIPVLRPRRQKLDTMCRYQVHQGVCMEVSPLRPRPWREAGEASPGDDPQQLWLVLDGIQDPRNFGAVLRSAHFLGVDKVITSRRNSCPLTPVVSKSSAGAMEVMDVFSTDDLTGFLQTKAQQGWLVAGTVGCPSTEDPQSSEIPIMSCLEFLWERPTLLVLGNEGSGLSQEVQASCQLLLTILPRRQLPPGLESLNVSVAAGILLHSICSQRKGFPTEGERRQLLQDPQEPSARSEGLSMAQHPGLSSGPEKERQNEG [MRM1] | -0.178 | -1.62 | -1.81 | 53.3 °C | 51.7 °C | 0.0939
MALLVRVLRNQTSISQWVPVCSRLIPVSPTQGQGDRALSRTSQWPQMSQSRACGGSEQIPGIDIQLNRKYHTTRKLSTTKDSPQPVEEKVGAFTKIIEAMGFTGPLKYSKWKIKIAALRMYTSCVEKTDFEEFFLRCQMPDTFNSWFLITLLHVWMCLVRMKQEGRSGKYMCRIIVHFMWEDVQQRGRVMGVNPYILKKNMILMTNHFYAAILGYDEGILSDDHGLAAALWRTFFNRKCEDPRHLELLVEYVRKQIQYLDSMNGEDLLLTGEVSWRPLVEKNPQSILKPHSPTYNDEGL [UQCC1] | -0.367 | 0.338 | -0.909 | 54.2 °C | 54.1 °C | -0.25
MALPFRKDLEKYKDLDEDELLGNLSETELKQLETVLDDLDPENALLPAGFRQKNQTSKSTTGPFDREHLLSYLEKEALEHKDREDYVPYTGEKKGKIFIPKQKPVQTFTEEKVSLDPELEEALTSASDTELCDLAAILGMHNLITNTKFCNIMGSSNGVDQEHFSNVVKGEKILPVFDEPPNPTNVEESLKRTKENDAHLVEVNLNNIKNIPIPTLKDFAKALETNTHVKCFSLAATRSNDPVATAFAEMLKVNKTLKSLNVESNFITGVGILALIDALRDNETLAELKIDNQRQQLGTAVELEMAKMLEENTNILKFGYQFTQQGPRTRAANAITKNNDLVRKRRVEGDHQ [TMOD3] | 0.293 | -0.553 | 0.573 | 49.4 °C | 50.5 °C | 0.296
MALQLGRLSSGPCWLVARGGCGGPRAWSQCGGGGLRAWSQRSAAGRVCRPPGPAGTEQSRGLGHGSTSRGGPWVGTGLAAALAGLVGLATAAFGHVQRAEMLPKTSGTRATSLGRPEEEEDELAHRCSSFMAPPVTDLGELRRRPGDMKTKMELLILETQAQVCQALAQVDGGANFSVDRWERKEGGGGISCVLQDGCVFEKAGVSISVVHGNLSEEAAKQMRSRGKVLKTKDGKLPFCAMGVSSVIHPKNPHAPTIHFNYRYFEVEEADGNKQWWFGGGCDLTPTYLNQEDAVHFHRTLKEACDQHGPDLYPKFKKWCDDYFFIAHRGERRGIGGIFFDDLDSPSKEEVFRFVQSCARAVVPSYIPLVKKHCDDSFTPQEKLWQQLRRGRYVEFNLLYDRGTKFGLFTPGSRIESILMSLPLTARWEYMHSPSENSKEAEILEVLRHPRDWVR [CPOX] | 0.131 | -0.749 | -1.47 | 55 °C | 55 °C | -0.135
MALRVVRSVRALLCTLRAVPSPAAPCPPRPWQLGVGAVRTLRTGPALLSVRKFTEKHEWVTTENGIGTVGISNFAQEALGDVVYCSLPEVGTKLNKQDEFGALESVKAASELYSPLSGEVTEINEALAENPGLVNKSCYEDGWLIKMTLSNPSELDELMSEEAYEKYIKSIEE [GCSH] | 0.297 | -1.2 | -1.7 | 60 °C | 56.8 °C | -0.0756
MALTSFLPAPTQLSQDQLEAEEKARSQRSRQTSLVSSRREPPPYGYRKGWIPRLLEDFGDGGAFPEIHVAQYPLDMGRKKKMSNALAIQVDSEGKIKYDAIARQGQSKDKVIYSKYTDLVPKEVMNADDPDLQRPDEEAIKEITEKTRVALEKSVSQKVAAAMPVRAADKLAPAQYIRYTPSQQGVAFNSGAKQRVIRMVEMQKDPMEPPRFKINKKIPRGPPSPPAPVMHSPSRKMTVKEQQEWKIPPCISNWKNAKGYTIPLDKRLAADGRGLQTVHINENFAKLAEALYIADRKAREAVEMRAQVERKMAQKEKEKHEEKLREMAQKARERRAGIKTHVEKEDGEARERDEIRHDRRKERQHDRNLSRAAPDKRSKLQRNENRDISEVIALGVPNPRTSNEVQYDQRLFNQSKGMDSGFAGGEDEIYNVYDQAWRGGKDMAQSIYRPSKNLDKDMYGDDLEARIKTNRFVPDKEFSGSDRRQRGREGPVQFEEDPFGLDKFLEEAKQHGGSKRPSDSSRPKEHEHEGKKRRKE [SNW1] | -0.328 | 0.202 | -3.38 | 52.3 °C | 50.8 °C | 0.482
MALVASVRVPARVLLRAGARLPGAALGRTERAAGGGDGARRFGSQRVLVEPDAGAGVAVMKFKNPPVNSLSLEFLTELVISLEKLENDKSFRGVILTSDRPGVFSAGLDLTEMCGRSPAHYAGYWKAVQELWLRLYQSNLVLVSAINGACPAGGCLVALTCDYRILADNPRYCIGLNETQLGIIAPFWLKDTLENTIGHRAAERALQLGLLFPPAEALQVGIVDQVVPEEQVQSTALSAIAQWMAIPDHARQLTKAMMRKATASRLVTQRDADVQNFVSFISKDSIQKSLQMYLERLKEEKG [ECI1] | 0.58 | -0.579 | -2.1 | 56.8 °C | 58.4 °C | 0.043
MALVHKLLRGTYFLRKFSKPTSALYPFLGIRFAEYSSSLQKPVASPGKASSQRKTEGDLQGDHQKEVALDITSSEEKPDVSFDKAIRDEAIYHFRLLKDEIVDHWRGPEGHPLHEVLLEQAKVVWQFRGKEDLDKWTVTSDKTIGGRSEVFLKMGKNNQSALLYGTLSSEAPQDGESTRSGYCAMISRIPRGAFERKMSYDWSQFNTLYLRVRGDGRPWMVNIKEDTDFFQRTNQMYSYFMFTRGGPYWQEVKIPFSKFFFSNRGRIRDVQHELPLDKISSIGFTLADKVDGPFFLEIDFIGVFTDPAHTEEFAYENSPELNPRLFK [NDUFAF1] | 0.043 | 4.31 | 3.52 | 54.6 °C | 55.2 °C | -0.0281
MAMAEGERTECAEPPRDEPPADGALKRAEELKTQANDYFKAKDYENAIKFYSQAIELNPSNAIYYGNRSLAYLRTECYGYALGDATRAIELDKKYIKGYYRRAASNMALGKFRAALRDYETVVKVKPHDKDAKMKYQECNKIVKQKAFERAIAGDEHKRSVVDSLDIESMTIEDEYSGPKLEDGKVTISFMKELMQWYKDQKKLHRKCAYQILVQVKEVLSKLSTLVETTLKETEKITVCGDTHGQFYDLLNIFELNGLPSETNPYIFNGDFVDRGSFSVEVILTLFGFKLLYPDHFHLLRGNHETDNMNQIYGFEGEVKAKYTAQMYELFSEVFEWLPLAQCINGKVLIMHGGLFSEDGVTLDDIRKIERNRQPPDSGPMCDLLWSDPQPQNGRSISKRGVSCQFGPDVTKAFLEENNLDYIIRSHEVKAEGYEVAHGGRCVTVFSAPNYCDQMGNKASYIHLQGSDLRPQFHQFTAVPHPNVKPMAYANTLLQLGMM [PPP5C] | 0.0833 | -0.0521 | -1.42 | 52.2 °C | 51.6 °C | -0.207
MAMDSSLQARLFPGLAIKIQRSNGLIHSANVRTVNLEKSCVSVEWAEGGATKGKEIDFDDVAAINPELLQLLPLHPKDNLPLQENVTIQKQKRRSVNSKIPAPKESLRSRSTRMSTVSELRITAQENDMEVELPAAANSRKQFSVPPAPTRPSCPAVAEIPLRMVSEEMEEQVHSIRGSSSANPVNSVRRKSCLVKEVEKMKNKREEKKAQNSEMRMKRAQEYDSSFPNWEFARMIKEFRATLECHPLTMTDPIEEHRICVCVRKRPLNKQELAKKEIDVISIPSKCLLLVHEPKLKVDLTKYLENQAFCFDFAFDETASNEVVYRFTARPLVQTIFEGGKATCFAYGQTGSGKTHTMGGDLSGKAQNASKGIYAMASRDVFLLKNQPCYRKLGLEVYVTFFEIYNGKLFDLLNKKAKLRVLEDGKQQVQVVGLQEHLVNSADDVIKMIDMGSACRTSGQTFANSNSSRSHACFQIILRAKGRMHGKFSLVDLAGNERGADTSSADRQTRMEGAEINKSLLALKECIRALGQNKAHTPFRESKLTQVLRDSFIGENSRTCMIATISPGISSCEYTLNTLRYADRVKELSPHSGPSGEQLIQMETEEMEACSNGALIPGNLSKEEEELSSQMSSFNEAMTQIRELEEKAMEELKEIIQQGPDWLELSEMTEQPDYDLETFVNKAESALAQQAKHFSALRDVIKALRLAMQLEEQASRQISSKKRPQ [KIF2C] | -0.0225 | 2.01 | 3.27 | 48.6 °C | 49.5 °C | -0.0369
MAMMVFPREEKLSQDEIVLGTKAVIQGLETLRGEHRALLAPLVAPEAGEAEPGSQERCILLRRSLEAIELGLGEAQVILALSSHLGAVESEKQKLRAQVRRLVQENQWLREELAGTQQKLQRSEQAVAQLEEEKQHLLFMSQIRKLDEDASPNEEKGDVPKDTLDDLFPNEDEQSPAPSPGGGDVSGQHGGYEIPARLRTLHNLVIQYASQGRYEVAVPLCKQALEDLEKTSGHDHPDVATMLNILALVYRDQNKYKEAAHLLNDALAIREKTLGKDHPAVAATLNNLAVLYGKRGKYKEAEPLCKRALEIREKVLGKFHPDVAKQLSNLALLCQNQGKAEEVEYYYRRALEIYATRLGPDDPNVAKTKNNLASCYLKQGKYQDAETLYKEILTRAHEKEFGSVNGDNKPIWMHAEEREESKDKRRDSAPYGEYGSWYKACKVDSPTVNTTLRSLGALYRRQGKLEAAHTLEDCASRNRKQGLDPASQTKVVELLKDGSGRRGDRRSSRDMAGGAGPRSESDLEDVGPTAEWNGDGSGSLRRSGSFGKLRDALRRSSEMLVKKLQGGTPQEPPNPRMKRASSLNFLNKSVEEPTQPGGTGLSDSRTLSSSSMDLSRRSSLVG [KLC2] | 0.526 | 0.627 | 1.01 | 50 °C | 50.1 °C | 0.0405
MAMNYNAKDEVDGGPPCAPGGTAKTRRPDNTAFKQQRLPAWQPILTAGTVLPIFFIIGLIFIPIGIGIFVTSNNIREIEIDYTGTEPSSPCNKCLSPDVTPCFCTINFTLEKSFEGNVFMYYGLSNFYQNHRRYVKSRDDSQLNGDSSALLNPSKECEPYRRNEDKPIAPCGAIANSMFNDTLELFLIGNDSYPIPIALKKKGIAWWTDKNVKFRNPPGGDNLEERFKGTTKPVNWLKPVYMLDSDPDNNGFINEDFIVWMRTAALPTFRKLYRLIERKSDLHPTLPAGRYSLNVTYNYPVHYFDGRKRMILSTISWMGGKNPFLGIAYIAVGSISFLLGVVLLVINHKYRNSSNTADITI [TMEM30A] | 0.428 | -0.78 | 0.594 | 54.2 °C | 54.6 °C | -0.17
